“And” between values parts separate entries of the source, which are not always exact repeats. Equal values may be shown once.
What was measured:
Sprague Dawley Rats = assay: Hyperinsulinemic-euglycemic clamp in Sprague Dawley rats; type: in vivo, rat
Method: The hyperinsulinemic euglycemic clamp has been considered to as the standard in vivo technique for measuring insulin sensitivity effects of type 2 diabetes drugs. In this procedure, insulin is administered to a test animal to raise the insulin concentration, while glucose is infused to maintain euglycemia. The glucose infusion rate (GIR) needed to maintain euglycemia is a reflection of insulin action or improved insulin sensitivity. The bradykinin receptor agonist (anti-BKB2R) monoclonal antibody clone 5F12G1 was tested in a euglycemic clamp study to measure its ability to improve insulin sensitivity.
Healthy young male Sprague Dawley Rats weighing 275-300 g were used for the study (Harlan Laboratory, Indianapolis, USA). The rats were maintained in a controlled environment at a temperature of 70-72° F., humidity 30-70%, with a photo cycle of 12 hours of light and 12 hours of dark. They were provided with TEKLAD™ 2018-Global 18% diet and drinking water ad libitum. After seven days of acclimatization, rats were grouped in groups of four.
Animals were anesthetized with an intraperitoneal injection of ketamine-plus-xylazine cocktail and the right jugular vein and left carotid artery were catheterized externally through an incision in the skin flap. The catheterized animals were allowed to recover for five days. After five days of recovery, animals were fasted for six hours and a 120-minute hyperinsulimic-euglycemic clamp was applied with continuous infusion of human insulin (Humulin, Eli Lilly, Indianapolis, Ind.) at a constant rate of 4mU/kg/minute. […] Both insulin and glucose were infused through catheterized right jugular vein and blood glucose levels were monitored from the catheterized carotid artery. Arterial blood glucose levels and plasma insulin levels were measured prior to infusion at t=−120, −90, −30, −15 and 0 minutes and then at every 10 minutes for 120 minutes (t=120), using a Glucose meter (Accu-Chek™ Roche Diagnostics, Indianapolis, Ind.) and a rat insulin ELISA kit. […]

PC-3 = assay: MTT Cell Proliferation Assay, PC-3; type: cell-based, human; settings: 120 hours of exposure
Description: (§1) This Example describes characterization of the cytotoxic activity of herein described anti-BKB2R monoclonal antibodies against a panel of cancer cell lines. BxPC-3 is a human adenocarcinoma cell line originally isolated from the pancreas (pancreatic cancer) (ATCC # CRL-1687; Tan et al., Cancer Invest. 4: 15-23, 1986. PubMed: 3754176). MV-4-11 is a human biphenotypic B myelomonocytic leukemia (mixed-lineage leukemia, MLL-AF4) cell line originally isolated from the peripheral blood (ATCC # CRL-959; Lange et al., Blood 70: 192-199, 1987. PubMed: 3496132). Hep G2 is a human hepatocellular carcinoma cell line isolated from the liver (liver cancer) (ATCC # HB-8065; Aden et al., Nature 282: 615-616, 1979. PubMed: 233137). RS4;11 is a human acute lymphoblastic leukemia (mixed-lineage leukemia, MLL-AF4) cell line isolated from the bone marrow (ATTC # CRL-1873) Stong et al., Blood 65: 21-31, 1985. PubMed: 3917311). HT-29 is a human colorectal adenocarcinoma (ATTC # HTB-38) cell line isolated from the colon (colon cancer). Fogh et al., J. Natl. Cancer Inst. 58: 209-214, 1977. PubMed: 833871). NUGC-4 is a human stomach carcinoma isolated from the stomach paragastiric lymph node (JCRB # JCRB0834; Akiyama et al., Jpn. J. Surg., 18: 438-446, 1988). […]
(§2) The anti-proliferative activity of test compounds against the indicated cell lines was evaluated in vitro using the ATCC's MTT Cell Proliferation Assay (Catalog No. 30-1010K). After the 120 hour incubation with drug (e.g., anti-BKB2R mAb or cisplatin), cell proliferation was measured by addition of MTT reagent to each well and incubation for an additional 4 hrs. […] Optical absorbance (570 nm) of the test wells was measured and then quantitated relative to control wells that received no drug. Results were expressed as percent inhibition versus compound concentration and graphed, as shown in FIGS. 19-25, for cell lines BxPC-3, MV-4;11, HepG2, RS-4;11, HT-29, NUGC-4, and PC-3, respectively.

ZDF fa/fa rats [1] = assay: 21-day ZDF fa/fa study: urinary glucose (glycosuria); type: in vivo, rat; settings: day 14
ZDF fa/fa rats [2] = assay: 21-day ZDF fa/fa study: hyperinsulinemic-euglycemic clamp in sub-groups; type: in vivo, rat; settings: after 21 days
Method: Animals. Male ZDF fa/fa rats were obtained from CRL (Kingston, N.Y.). Upon arrival, rats were seven weeks of age. The rats were housed individually per cage in a room with a photo cycle of 12 hours of light and 12 hours of dark and an ambient temperature of 70-72° F. and fed on regular rodent diet and water ad libitum. At the age of eleven weeks, rats were divided into six groups (Table 5) of eight rats per group based on fasting blood glucose levels. A sub-group of four rats per group was maintained in parallel to the main groups and was dosed similarly for twenty-one days for a hyperinsulinemic-euglycemic clamp study.
The test compounds 5F12G1 and MG2b-57 were administered subcutaneously once every three days.

NUGC-4 = assay: MTT Cell Proliferation Assay, NUGC-4; type: cell-based, human; settings: 120 hours of exposure
Description: as §1, §2

B1: 5F12G1: murine monoclonal anti-BKB2R antibody (IgG2b,κ), VH comprising SEQ ID NO:1, VL comprising SEQ ID NO:2 (antibody, listed as Mus musculus, V domains shown)
VH: EVKLEESGGGLVQPGGSMKLSCVVSGFTFSDYWMSWVRHSPEMGLEWVAEIRLKSDNYATHYAESVKGRFTISRDDSKSRLYLQINSLRGEDTGIYYCTRDYYAMEYWGQGTSVTVSS
VL: DVVMTQTPLSLPVSLGDQASISCRSSQTIVHSNGKTYLEWYLQKPGQSPKLLIYKVSNRFSGVPDRFSGSGSGTEFTLKISRVETEDLGVYYCFQASHVPYTFGGGTKLEIK
For B1, the “increase in total glucose infusion rate AUC compared to vehicle” value (Sprague Dawley Rats; 0.5 mg/kg i.m. at t=−30 min, 120-minute clamp) was 179%, the “peak increase of glucose infusion rate compared to vehicle” value (Sprague Dawley Rats; 0.5 mg/kg i.m. at t=−30 min, t=60 min) was 291% and the “Calculated Glucose Infusion Rate Area Under the Curve” value (Sprague Dawley Rats; 0.5 mg/kg i.m., individual animals # 1-4) was 4560 mg/kg and 4317 mg/kg and 3243 mg/kg and 2685 mg/kg. For the same molecule, the “EC 50 Values (ng/ml) PC-3” value (PC-3) was 4200 ng/mL, the urine glucose level (ZDF fa/fa rats [1]; 0.008 mg/kg s.c. every 3 days) was 54 ± 11 mg/dL and the urine glucose level (ZDF fa/fa rats [1]; 0.04 mg/kg s.c. every 3 days) was 49 ± 6 mg/dL. For the same molecule, the urine glucose level (ZDF fa/fa rats [1]; 0.2 mg/kg s.c. every 3 days) was 31 ± 2 mg/dL, the “AUC-GIR (glucose infusion rate) in the clamp” value (ZDF fa/fa rats [2]; 0.04 mg/kg s.c. every 3 days) was “significantly higher AUC-GIR” and the “AUC-GIR (glucose infusion rate) in the clamp” value (ZDF fa/fa rats [2]; 0.2 mg/kg s.c. every 3 days) was “significantly higher AUC-GIR”. For the same molecule, the “EC 50 Values (ng/ml) NUGC-4” value (NUGC-4) was 47000 ng/mL.

Reference: patent US20140017242A1, “ANTI-BRADYKININ B2 RECEPTOR (BKB2R) MONOCLONAL ANTIBODY” (Diamedica, Inc., priority 2010, published 2014)
